Experimental data published in patent US10808024B2, “Antibodies against immunocomplexes comprising cyanobacterial cyclic peptide hepatotoxins” (priority 2015, dated 2020).
“Also recorded” adds a separate entry of the source.

Assays:
[1] = system: immunocomplex of CCPH variant and biotinylated anti-Adda mAb; assay: Quantitative lateral flow test with streptavidin up-converting nanoparticles; type: binding; settings: each CCPH at 1 μg/l
[2] = system: immunocomplex formed by anti-Adda Mab and MC-LR; assay: BioLayer Interferometry (Octet), binding to immunocomplex; settings: SA51D1 1 μg/ml
Description: (§1) Binding of SA51D1 was explored using Octet RED384 instrument (Pall ForteBio). Three measurements (A, B and C) were performed in duplicates using tilted-bottom 384-well microplates (ForteBio) with 1000 rpm agitation at 30° C. Colorless Assay Buffer (Kaivogen) [0.05 M Tris-HCl, pH 7.75, 0.9% (w/v) NaCl, 0.05% (w/v) NaN3, 0.01% (v/v) Tween 40, 0.05% (w/v) bovine-γ-globulin, 20 μM diethylenetriaminepentaacetate (DTPA), and 0.5% (w/v) bovine serum albumin (BSA)] was used.
(§2) Biotinylated ADDA Mab AD4G2 (1 μg/ml) was immobilized on Streptavidin biosensor (Dip and Read SA Biosensors, ForteBio) for 200 sec. In order to form IC, another loading was performed with MC-LR (1 μg/ml) for 200 sec. In blank measurement (C) only buffer was used instead of MC-LR. All sensors were incubated in buffer for 60 sec.

[3] = system: anti-Adda mAb without MC-LR; assay: BioLayer Interferometry (Octet), binding to naked primary antibody; settings: SA51D1 1 μg/ml; no MC-LR
Description: as §1, §2

[4] = BioLayer Interferometry (Octet), pre-incubation with free toxin; type: binding; settings: pre-incubated with 500 μg/L MC-LR
Description: as §1, §2

[5] = system: biotinylated anti-Adda Mab, no CCPH; assay: TR-IFMA background signal without CCPH; type: binding
Description: (§3) By way of example, the specificity of SA51D1 to the immune complex was also seen in our immunoassay, where streptavidin-coated 96-well microtiter wells were used to capture a complex formed by biotinylated anti-Adda Mab, CCPH, SA51D1 antibody fused to alkaline phosphatase and this complex was detected with europium-labelled anti-alkaline phosphatase Pab. […] With 10 μg/l level of MC-LR the fluorescence signal was 789966 counts.

[6] = system: complex of biotinylated anti-Adda Mab and MC-LR; assay: TR-IFMA signal with MC-LR; type: binding; settings: 10 μg/l MC-LR
Description: as §3

[7] = system: immunocomplexes of CCPH variants and anti-Adda mAb; assay: Screening and cross-reactivity studies of anti-IC scFv-AP binders, specificity class; type: binding

B1: SA51D1: group-specific (generic) anti-immunocomplex scFv from synthetic phage display library (antibody, V domains shown)
VH: EVQLLESGGGLVQPGGSLRLSCAASGFTFSNYSMHWVRQAPGKGLEWVSEITPYDGNTDYADSVKGRFTISRDNSKNTLYLQMNSLRAEDTAVYYCAREWWSSNWIYLDYWGQGTLVTVSS
VL: EIVLTQSPGTLSLSPGERATLSCRASQSVSSSNLAWYQQKPGQAPRLLIYGASSRATGVPDRFSGSGSGTDFTLTISRLEPEDFAVYYCQQMHSTPWTFGQGTKVEIKRT
modifications: Clone SA51D1; DOMAIN (31)..(35) CDR1; DOMAIN (50)..(66) CDR2; DOMAIN (99)..(110) CDR3; DOMAIN (24)..(35) CDR1; DOMAIN (51)..(57) CDR2; DOMAIN (90)..(98) CDR3
Question: For B1, which “Recognition of nine CCPH variants in lateral flow test” value [1] is on record?
Answer: recognizes all CCPH variants tested

Question: What about the Binding to immunocomplex [2] of the same molecule?
Answer: binds specifically

Question: What about the “Binding to anti-Adda mAb alone” value [3] of the same molecule?
Answer: no interaction; also recorded: neglegtable binding

Question: What about the “Affinity towards free MC-LR” value [4] of the same molecule?
Answer: does not have affinity; also recorded: no affinity

Question: And the “Background fluorescence signal level” value [5]?
Answer: 404 counts

Question: And the Fluorescence signal [6]?
Answer: 789966 counts

Question: What about the “Specificity of anti-IC antibody (CCPH immunocomplexes recognized)” value [7] of the same molecule?
Answer: group-specific; also recorded: broad-specific
